# Patent US20190225680A1 (NASCIENT, published 2019)
# Where a chain is given by its changes, count along the chain named.
# T1: human TNC rCd4-His-FBG (rat; human)
# T1 sequence: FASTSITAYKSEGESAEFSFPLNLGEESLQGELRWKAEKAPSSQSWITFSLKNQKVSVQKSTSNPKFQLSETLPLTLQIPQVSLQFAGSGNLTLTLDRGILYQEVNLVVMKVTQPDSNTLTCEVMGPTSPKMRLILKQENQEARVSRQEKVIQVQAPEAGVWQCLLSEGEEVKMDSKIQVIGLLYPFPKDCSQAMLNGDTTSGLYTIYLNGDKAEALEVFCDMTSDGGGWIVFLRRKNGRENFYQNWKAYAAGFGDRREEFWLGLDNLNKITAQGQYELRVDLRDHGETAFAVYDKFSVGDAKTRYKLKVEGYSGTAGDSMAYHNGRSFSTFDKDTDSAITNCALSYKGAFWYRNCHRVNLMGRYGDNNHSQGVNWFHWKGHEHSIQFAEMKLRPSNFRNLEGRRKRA
# T2: human TNR rCd4-His-FBG (rat; human)
# T2 sequence: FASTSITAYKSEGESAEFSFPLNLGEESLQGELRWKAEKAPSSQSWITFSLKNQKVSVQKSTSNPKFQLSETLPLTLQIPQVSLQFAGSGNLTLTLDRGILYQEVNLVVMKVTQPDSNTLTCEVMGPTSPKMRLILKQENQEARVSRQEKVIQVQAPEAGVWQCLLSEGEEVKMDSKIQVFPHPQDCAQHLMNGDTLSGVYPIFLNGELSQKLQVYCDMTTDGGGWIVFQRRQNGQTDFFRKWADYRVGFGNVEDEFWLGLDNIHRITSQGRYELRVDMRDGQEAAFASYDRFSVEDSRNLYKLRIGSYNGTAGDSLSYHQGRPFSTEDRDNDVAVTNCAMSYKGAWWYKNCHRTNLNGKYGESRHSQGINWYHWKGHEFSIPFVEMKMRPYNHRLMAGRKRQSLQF
# T3: mouse TNC rCd4-His-FBG (rat; mouse, UniProt P05540 207-386)
# T3 construct: domain: domains 3 and 4; also called Mu TNC; mouse TNC FBG
# T3 sequence: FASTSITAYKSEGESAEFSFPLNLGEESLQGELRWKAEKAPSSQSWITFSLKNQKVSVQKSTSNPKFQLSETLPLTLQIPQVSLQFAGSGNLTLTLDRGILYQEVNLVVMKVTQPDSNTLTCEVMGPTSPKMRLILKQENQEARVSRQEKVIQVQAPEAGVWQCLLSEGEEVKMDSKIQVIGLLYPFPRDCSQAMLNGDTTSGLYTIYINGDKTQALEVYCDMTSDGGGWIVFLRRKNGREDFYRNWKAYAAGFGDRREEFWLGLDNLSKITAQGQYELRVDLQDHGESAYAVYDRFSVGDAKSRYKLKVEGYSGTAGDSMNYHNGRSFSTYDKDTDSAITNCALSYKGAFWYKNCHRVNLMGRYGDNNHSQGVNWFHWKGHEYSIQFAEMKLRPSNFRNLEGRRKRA
# T4: dog TNC rCD4-His-FBG (rat; dog)
# T4 sequence: T3 sequence with I209L, T214A, S269H, Q284R, E288K, S289T, S304T, N322A, Y332F
# T5: rat TNC rCd4-His-FBG (rat) (UniProt P05540)
# T5 sequence: T3 sequence with A252T
# T6: human TNR rCd4-His-FBG (rat; human, UniProt P05540 207-386)
# T6 construct: domain: domains 3 and 4; also called Hu TNR; human TNR FBG
# T6 sequence: T2 sequence
# T7: human TNC rCd4-His-FBG (rat; human, UniProt P05540 207-386)
# T7 construct: domain: domains 3 and 4; Biotinylated in the ELISA and HTRF assays; also called Hu TNC; human TNC FBG
# T7 sequence: T1 sequence
# B1: 2A5 scFv (scFv, V domains shown, not shown: small tags and cut ends)
# VH: EVRLVQSGAEVKKPGASVKVSCKVSGYTLTELSMHWVRQAPGKGLEWMGGFDPEDGETIYAQKFQGRVTMTEDTSTDTAYMELSSLRSEDTAVYYCATAQKETYALTYWGQGTLVTVSS
# VL: DIQMTQSPASLPTSVGDRVTITCRASQYIQGFLNWYQQKPGKAPRLLIYAASTLQDGVPSRFSGSGYGTDFTLTISSLQPEDFATYYCQQSYSTPWTFGQGTKVEIK
# B2: 165_13_C3 IgG4 (antibody, V domains shown)
# VH: QVQLVESGGGLVQPGRSLRLSCAASGFTFDDYAMHWVRQAPGKGLEWVSGISGSGGSTYYADSVKGRFTISRDNAKNSLYLQMNSLRAEDTALYYCAKSYQSDEDAFDIWGQGTMVTVSS
# VL: DIQMTQSPASLPTPVGDRVTITCRASQYIQGFLNWYQQKPGKAPKLLIYDASNLETGVPSRFSGSGSGTDFTLTISSLQPEDFATYYCQQSYSTPQTFGQGTKVDIKR
# B3: B12 Fab (Fab, V domains shown)
# VH: B2 VH with S99D, Y100I, Q101S, S102A, D103V, E104P, A106T
# VL: B2 VL
# notes: Monomeric Fab from a dual promoter Fab vector; also called B12 parental antibody
# B4: 180_11_F5 scFv (scFv, V domains shown, not shown: small tags and cut ends)
# VH: B2 VH with S99V, Y100M, Q101R, S102T, D103G, E104L, A106T
# VL: B1 VL with S14P, R45K, A50D, T53N, Q55E, D56T, Y67S, W96Q, E105D
# notes: VH CDR3 VMRTGLDTFDI
# Key:
# [1] = molecular target: T1, human TNC rCd4-His-FBG (rat; human); assay: HTRF competition, scFv supernatant, competitor d2-labelled B12 IgG, biotinylated human rCd4-His-FBG
# [2] = molecular target: T2, human TNR rCd4-His-FBG (rat; human); assay: SPR, 37 C, purified IgG4 captured on anti-human Fc
# mouse TNC rCd4-His-FBG [3] = molecular target: T3, mouse TNC rCd4-His-FBG; assay: SPR, BIAcore T100, 37 C, IgG4 captured on anti-human Fc, rCD4-His-FBG injected, 1:1 fit
# [4] = molecular target: T4, dog TNC rCD4-His-FBG (rat; dog); assay: as above
# [5] = molecular target: T1, human TNC rCd4-His-FBG (rat; human); assay: as above
# [6] = molecular target: T2, human TNR rCd4-His-FBG (rat; human); assay: as above
# [7] = molecular target: T5, rat TNC rCd4-His-FBG (rat); assay: as above
# mouse TNC rCd4-His-FBG [8] = molecular target: T3, mouse TNC rCd4-His-FBG; assay: SPR off-rate screen, 25 C, IgG4 from supernatant captured on anti-human Fc, 15 nM antigen, 1:1 fit
# [9] = molecular target: T2, human TNR rCd4-His-FBG (rat; human); assay: SPR off-rate screen, 25 C, IgG4 from supernatant captured on anti-human Fc, 100 nM antigen, 1:1 fit
# human TNR rCd4-His-FBG = molecular target: T6, human TNR rCd4-His-FBG; assay: SPR, BIAcore T100, 25 C, Fab captured, rCd4-FBG injected
# Experimental: Experiments were performed using a BIAcore T100 instrument with CM5 sensor chip according to the protocol provided with the Human Fab Capture Kit (GE, 28-9583-25). Varying concentrations of rCd4-FBG were injected into a flow-cell with immobilised Fab and a reference flow-cell. After reference signal subtraction, the data was fitted to a global 1:1 fit using theT100 BIAevaluation software.
# mouse TNC rCd4-His-FBG [10] = molecular target: T3, mouse TNC rCd4-His-FBG; assay: anti-FLAG capture DELFIA ELISA, scFv supernatant, biotinylated mouse rCd4-His-FBG
# Experimental: E. coli clones harbouring scFv pSANG10 expression plasmids were induced in 96-well plates with auto-induction media as described previously (Schofield et al, 2007). E. coli supernatants were harvested for ELISA assays. ELISA used the DELFIA (dissociation enhanced lanthanide fluorescent immunoassay) system with Europium-labelled anti-FLAG antibody (Sigma, Aldrich, UK). Black immunosorb plates (Nunc) were coated overnight with anti-FLAG M2 antibody (Sigma, F3165, 5 μg/ml in PBS, 50 μl per well), in wells blocked by the addition of 2% milk powder, PBS (PBS-M, 300 μl per well). Plates were washed three times with PBS-T (PBS, 0.1% Tween-20) and three times with PBS followed by the addition of a 1:2 dilution of 96-well auto-induction culture supernatants containing expressed scFv in PBS-M (50 μl per well). The plates were incubated for 1 h, washed as above and biotinylated mouse or human rCd4-His-FBG (5 μg/ml in PBS-M, 50 μl) added to each well. Plates were incubated for a further 1 h, washed and Strepravidin-Eu added (Perkin Elmer, 1 μg/ml, PBS-M, 50 μl), incubated for 30 min, washed and DELFIA enhancement solution added (50 μl) and plates read on a Perkin Elmer Fusion plate reader (excitation=320 nm, emission 620 nm). The format of the assay is shown in.
# human TNC rCd4-His-FBG = molecular target: T7, human TNC rCd4-His-FBG; assay: HTRF competition, scFv supernatant, competitor d2-labelled B12 IgG, biotinylated human rCd4-His-FBG
# Experimental: An HTRF-based competition assay was developed to screen for antibody variants with improved binding to human TNC FBG.
# All samples and reagents were prepared in assay buffer (50 mM NaPO₄, 0.1% BSA, 0.4 M KF, pH 7.0) at 4× the stated concentration. 5 μl of each reagent was subsequently added to low volume 384-well assay plates (Greiner, 784075) to give a final reaction volume of 20 μl. IgG antibodies were labelled using the d2 labelling kit (CisBio, 62D2DPEA) as directed by the manufacturer. Streptavidin europium cryptate (CisBio, 610SAKLA, Lot#25C) was used at a final concentration of 1.8 ng active moiety (SA) per 20 μl reaction as recommended by the manufacturer. Biotinylated rCd4-His-FBG was prepared using EZ-link Sulfo-NHS-LC-Biotin reagent (Thermo Scientific, 21327) the extent of biotinylation was quantified using biotinylation fluorescence quantitation kit (Thermo Scientific, 46610). Where appropriate, supernatants containing scFv (prepared as described above for ELISA assays) were added to the 384-well assay plate at a final dilution of 1/20 (i.e. 1/5 dilution in assay buffer followed by addition of 5 μl diluted sample to the 20 μl FRET assay). […] Unless otherwise stated, biotinylated rCd4-His-FBG (biotin:protein ratio=1.8:1) was present at either 2.2 nM (in assays using the 2A5 IgG antibody) or 1 nM (in experiments using B12 IgG). Samples were incubated for approximately 1 h at room temperature and the FRET signal was determined using a BMG Pherastar instrument: excitation=320 nm; emission=620 nm and 665 nm; integration start time=60 μs; integration time=500 μs; 100 flashes per well. For competition assays containing culture supernatant, biotinylated rCd4-His-FBG antigen was pre-incubated with streptavidin europium cryptate for 45 min prior to addition of reagents to the assay plate. All FRET signals are presented as ΔR, where R=(E665/E620×104) and ΔR=(Rsample−Rbackground fluorescence).
# Culture supernatants containing unlabelled scFv clones from affinity selected mutant libraries were tested for inhibition of the interaction between FBG and the fluorophore-labelled parental IgG antibody.
binder,measurement,setting,value
B1,% inhibition by parent scFv,[1],19%
B2,fold lower affinity for human TNR FBG than for human TNC FBG,[2],> 70 fold
same,Kd,mouse TNC rCd4-His-FBG [3],0.46 nM
same,koff,mouse TNC rCd4-His-FBG [3],0.000445 s⁻¹
same,kon,mouse TNC rCd4-His-FBG [3],972000 M⁻¹ s⁻¹
same,Kd,[4],1.8 nM
same,koff,[4],0.0108 s⁻¹
same,kon,[4],5.97e+06 M⁻¹ s⁻¹
same,Kd,[5],0.072 nM
same,koff,[5],0.00083 s⁻¹
same,kon,[5],1.16e+07 M⁻¹ s⁻¹
same,Kd,[6],35.8 nM
same,koff,[6],0.0431 s⁻¹
same,kon,[6],1.2e+06 M⁻¹ s⁻¹
same,Kd,[7],1.22 nM
same,koff,[7],0.00473 s⁻¹
same,kon,[7],3.89e+06 M⁻¹ s⁻¹
same,koff,mouse TNC rCd4-His-FBG [8],3.3e-06 s⁻¹
same,koff,[9],0.012 s⁻¹
B3,fold lower affinity for human TNR FBG than for human TNC FBG,human TNR rCd4-His-FBG,> 60 fold
B4,fold improvement for mouse FBG binding (against the parent B12),mouse TNC rCd4-His-FBG [10],≥ 4 fold
same,% inhibition of HTRF signal,human TNC rCd4-His-FBG,91%
